Results reported in patent publication US10759835B2, “Monomeric streptavidin mutants, methods of using the same and processes of manufacturing proteins” (The Research Foundation for The State University of New York, priority 2016, dated 2020).
Values joined by “and” are separate entries in the source; they are usually repeats but may differ in a detail not shown here. Identical values can stand only once.

B1: mSA-R: monomeric streptavidin mutant SEQ ID NO: 2, S25R (S13R in SEQ ID NO: 1 numbering) (protein)
chain: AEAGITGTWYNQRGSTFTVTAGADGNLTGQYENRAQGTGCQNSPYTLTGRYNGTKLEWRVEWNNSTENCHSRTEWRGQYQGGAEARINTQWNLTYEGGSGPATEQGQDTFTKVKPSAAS
modifications: Modified streptavidin
B2: mSA-RWT: monomeric streptavidin mutant SEQ ID NO: 4, S25R, T48W, E124T (protein)
chain: AEAGITGTWYNQRGSTFTVTAGADGNLTGQYENRAQGWGCQNSPYTLTGRYNGTKLEWRVEWNNSTENCHSRTEWRGQYQGGAEARINTQWNLTYEGGSGPATTQGQDTFTKVKPSAAS
modifications: Modified streptavidin
B3: mSA: engineered monomeric streptavidin, reference sequence SEQ ID NO: 1 (Lim et al. 2013) (protein)
chain: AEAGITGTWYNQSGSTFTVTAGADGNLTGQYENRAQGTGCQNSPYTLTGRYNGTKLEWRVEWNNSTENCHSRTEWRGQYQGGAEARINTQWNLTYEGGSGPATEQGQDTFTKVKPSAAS
modifications: monomeric streptavidin
B4: mSA-ER: monomeric streptavidin mutant SEQ ID NO: 6, Q24E, S25R (protein)
chain: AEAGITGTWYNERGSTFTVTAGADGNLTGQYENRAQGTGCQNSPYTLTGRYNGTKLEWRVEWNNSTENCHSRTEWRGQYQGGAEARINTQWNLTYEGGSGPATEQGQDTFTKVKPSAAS
modifications: Modified streptavidin
B5: mSA-DR: monomeric streptavidin mutant SEQ ID NO: 7, Q24D, S25R (protein)
chain: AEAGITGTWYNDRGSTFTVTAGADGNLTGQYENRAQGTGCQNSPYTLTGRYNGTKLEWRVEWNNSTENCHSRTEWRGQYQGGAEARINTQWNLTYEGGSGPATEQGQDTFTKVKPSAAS
modifications: modified streptavidin
B6: mSA-ERWT: monomeric streptavidin mutant SEQ ID NO: 10, Q24E, S25R, T48W, E124T (protein)
chain: AEAGITGTWYNERGSTFTVTAGADGNLTGQYENRAQGWGCQNSPYTLTGRYNGTKLEWRVEWNNSTENCHSRTEWRGQYQGGAEARINTQWNLTYEGGSGPATTQGQDTFTKVKPSAAS
modifications: Modified streptavidin
B7: mSA-DRWT: monomeric streptavidin mutant SEQ ID NO: 11, Q24D, S25R, T48W, E124T (protein)
chain: AEAGITGTWYNDRGSTFTVTAGADGNLTGQYENRAQGWGCQNSPYTLTGRYNGTKLEWRVEWNNSTENCHSRTEWRGQYQGGAEARINTQWNLTYEGGSGPATTQGQDTFTKVKPSAAS
modifications: Modified streptavidin
B8: mSA-ERF: monomeric streptavidin mutant SEQ ID NO: 8, Q24E, S25R, T48F (protein)
chain: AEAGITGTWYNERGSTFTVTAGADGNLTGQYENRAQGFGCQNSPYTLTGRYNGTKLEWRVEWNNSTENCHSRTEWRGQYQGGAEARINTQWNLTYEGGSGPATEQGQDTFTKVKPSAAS
modifications: Modified streptavidin
B9: mSA-DRF: monomeric streptavidin mutant SEQ ID NO: 9, Q24D, S25R, T48F (protein)
chain: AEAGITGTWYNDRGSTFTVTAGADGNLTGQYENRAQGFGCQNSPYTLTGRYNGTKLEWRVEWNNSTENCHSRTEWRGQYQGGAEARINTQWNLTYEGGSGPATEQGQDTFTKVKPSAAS
modifications: Modified streptavidin
B10: mSA-H: monomeric streptavidin mutant SEQ ID NO: 5, S25H (protein)
chain: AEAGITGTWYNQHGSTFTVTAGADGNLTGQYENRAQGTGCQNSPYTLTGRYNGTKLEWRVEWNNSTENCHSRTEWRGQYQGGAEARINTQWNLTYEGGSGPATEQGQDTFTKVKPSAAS
modifications: Modified streptavidin

Columns and labels:
[1] = Fluorescence polarization spectroscopy, biotin dissociation rate (koff); format: binding; settings: for t1/2: dissociation half-life t1/2=0.693/koff, biotin-fluorescein; for t1/2 / Koff(×10^−3 min^−1): 37° C.; for Koff(×10^−3 min^−1): dissociation of biotin-fluorescein, excess free biotin 100 μM
Experimental: FIG. 4. In vitro characterization of purified mSA mutants. a) Stability of mSA-RF and mSA-RWT in PBS was measured by circular dichroism spectroscopy with or without biotin. b) Fluorescence polarization spectroscopy was used to measure the dissociation rate of biotin-fluorescein. The dissociation rate, koff, was computed by fitting normalized fluorescence polarization data, or bound fraction f, to an exponentially decaying function, i.e. ƒ=e^−k^off^*t The measurements were taken at 37° C. c) The equilibrium affinity of binding Kd between mSA-RF and biotin-fluorescein was measured by FP. d) mSA-S25H and mSA-RF were analyzed by size exclusion chromatography to estimate their molecular weights in solution. Each mutant eluted with a retention time that was consistent with monomeric streptavidin. The molecular weight standards (arrows) correspond to 66.0, 29.0, 12.4 and 6.5 kDa from left to right.
The binding of biotinylated fluorescein (bf, AnaSpec) was measured using a microplate reader (SpectraMax® i3 Microplate reader from Molecular Devices) in flat bottom 96 well plates (Sterilin Ltd). To measure Kd, 100 nM bf was first mixed with titrating amounts of mSA in PBS containing 0.1 mg/ml bovine serum albumin (BSA). After overnight incubation at room temperature, the fluorescence polarization values were measured and fit to the quadratic binding equation (Hsu and Park, 2010, J Mol Graph Model, 29, 295-308). To measure the off rate (koff), 10 nM bf was first mixed with 50 nM mSA and incubated for 2 hr to form a biotin-mSA complex. To observe dissociation of bf, excess free biotin was added to a final concentration of 100 μM and recording of fluorescence was started immediately. The intensity of polarized fluorescence was measured at various time points and normalized with respect to the value at t=0 min. The intensities were fit to an exponentially decaying function e^−k^off^*t to compute koff. The dissociation half-life t1/2=0.693/koff.
We measured the biotin dissociation rate of various mSA mutants by fluorescence polarization spectroscopy. Table 2 presents the biotin dissociation rate (koff) of various mutants measured by fluorescence polarization spectroscopy. The S25R mutation lowered koff by nearly 21 fold compared to the original mSA and 3.3 fold compared to the S25H mutant (Table 2, FIG. 4b).

[2] = system: HEK293 cells displaying biotinylated AP-CFP; assay: Fluorescent labeling of cell surface biotinylated receptor, confocal microscopy; format: cell-based
Description: FIG. 5. Fluorescent labeling of HEK293 cells displaying biotinylated receptor. a) HEK293 cells displaying biotinylated AP-CFP were labeled with Alexa488-conjugated mSA-RWT and imaged by fluorescence microscopy. Fluorescence was filtered for (i) CFP and (ii) Alexa488 and the same field of vision was imaged multiple times at regular intervals to measure the stability of labeling. iii. DIC. mSA-RWT binds only CFP positive cells, indicating high specificity of interaction. b-c) HEK293 displaying unrelated protein fused to CFP b) or untransfected HEK293 c) were treated with purified BirA and then labeled with fluorescent mSA-RWT as in part (a) (i)-(iii) the same as before. d) The captured fluorescence images of mSA-RWT—Alexa488 labeled cells (in jpg format) were loaded into MatLab and the amount of CFP and Alexa488 fluorescence was quantified by summing over pixel values. The fluorescence intensity was normalized with respect to the value at t=0. e) Cells labeled with mSA-RF—EGFP were similarly imaged and analyzed to determine the time dependent loss of mSA labeling.
Adherent HEK293 cells were seeded in a 24 well plate (Becton Dickinson) and grown in DMEM supplemented with 10% FBS and antibiotic/antimycotic (Invitrogen). At 50% confluency, the cells were transfected with a plasmid containing pDisplay-AP-CFP-TM. After 2 days the wells were supplemented with 100 nM purified BirA, 5 mM ATP, and 0.3 mM biotin and the biotinylation reaction was carried out overnight. The following morning, the cells were detached from the wells using EDTA Solution (Versene from Life Technologies), washed with PBS containing 0.1% w/v BSA (PBSF), and fixed in 4% paraformaldehyde solution. Prior to microscopy, cells were labeled with 1 μM mSA-RWT—Alexa488 or 1 μM mSA-RF—EGFP in PBSF for 30 minutes. Excess protein was washed away and cells were switched to PBSF with 0.9 mM biotin. Each sample was mounted on slides and imaged using confocal microscopy. The same field of view was imaged every 10 min for 60 min to quantify fluorescence loss as a function of time. The captured images were analyzed with microscope software (ZEN from Zeiss, and MatLab® from MathWorks).
We tested the use of mSA-RWT or mSA-RF in cell imaging, in which biotinylated proteins on the cell surface were labeled with Alexa488 conjugated mSA-RWT or mSA-RF fused to EGFP, and imaged by fluorescence confocal microscopy. Cell imaging is an important test of whether engineered mutants can specifically interact with biotinylated ligands in a heterogeneous environment, in which other potentially competing interactions can interfere with desired detection. […]
To evaluate the stability of labeling, we imaged the labeled cells repeatedly over 1 hr and quantified the fluorescence intensity of Alexa488 or GFP at regular intervals. […]

[3] = currently available mSA, Lim et al.; cited from earlier work

Molecule | t1/2 [1] | Koff(×10^−3 min^−1) [1] | further results
B1 | 4.62 ± 0.2 h | 2.51 ± 0.11 ×10^−3 min^−1 | fold lowering of koff compared to the S25H mutant [1]: 3.3 fold; fold lowering of koff compared to the original mSA [1]: ~21 fold and 25 fold; t1/2 ([1]; listed as S25R): 4.62 h
B2 | 5.48 ± 0.35 h | 2.11 ± 0.13 ×10^−3 min^−1 | off rate / dissociation half-life compared with another mutant ([1]; result in words): longer than mSA-S25R; Alexa488/GFP fluorescence of labeled cells over time ([2]; after 1 hr, 900 μM biotin in the labeling solution): remained high; labeling of cells displaying biotinylated AP-CFP ([2]; fixed HEK293 cells, 1 μM for 30 minutes): Only CFP positive cells were labeled selectively
B3 | 0.183 h | 63 ×10^−3 min^−1 | biotin dissociation koff [3]: 0.00105 s⁻¹; dissociation t1/2 [3]: 0.183 h
B4 | 1.14 ± 0.102 h | 10.2 ± 0.91 ×10^−3 min^−1 | –
B5 | 0.568 ± 0.02 h | 20.3 ± 0.69 ×10^−3 min^−1 | –
B6 | 1.19 ± 0.0283 h | 9.73 ± 0.24 ×10^−3 min^−1 | –
B7 | 0.717 ± 0.0233 h | 16.1 ± 0.52 ×10^−3 min^−1 | –
B8 | 1.26 ± 0.03 h | 9.15 ± 0.21 ×10^−3 min^−1 | –
B9 | 0.778 ± 0.0217 h | 14.9 ± 0.41 ×10^−3 min^−1 | –
B10 | 1.41 ± 0.0517 h | 8.19 ± 0.31 ×10^−3 min^−1 | –
